Data published in paper doi:10.1101/2020.06.05.136150 (bioRxiv, 2020).
No end group written: not given here. *: point of attachment. FITC = O=C1OC2(c3ccc(O)cc3Oc3cc(O)ccc32)c2ccc(NC(=S)*)cc21

T1: PBP1bγ (E. coli, UniProt P02919-2 1-799)
T1 sequence: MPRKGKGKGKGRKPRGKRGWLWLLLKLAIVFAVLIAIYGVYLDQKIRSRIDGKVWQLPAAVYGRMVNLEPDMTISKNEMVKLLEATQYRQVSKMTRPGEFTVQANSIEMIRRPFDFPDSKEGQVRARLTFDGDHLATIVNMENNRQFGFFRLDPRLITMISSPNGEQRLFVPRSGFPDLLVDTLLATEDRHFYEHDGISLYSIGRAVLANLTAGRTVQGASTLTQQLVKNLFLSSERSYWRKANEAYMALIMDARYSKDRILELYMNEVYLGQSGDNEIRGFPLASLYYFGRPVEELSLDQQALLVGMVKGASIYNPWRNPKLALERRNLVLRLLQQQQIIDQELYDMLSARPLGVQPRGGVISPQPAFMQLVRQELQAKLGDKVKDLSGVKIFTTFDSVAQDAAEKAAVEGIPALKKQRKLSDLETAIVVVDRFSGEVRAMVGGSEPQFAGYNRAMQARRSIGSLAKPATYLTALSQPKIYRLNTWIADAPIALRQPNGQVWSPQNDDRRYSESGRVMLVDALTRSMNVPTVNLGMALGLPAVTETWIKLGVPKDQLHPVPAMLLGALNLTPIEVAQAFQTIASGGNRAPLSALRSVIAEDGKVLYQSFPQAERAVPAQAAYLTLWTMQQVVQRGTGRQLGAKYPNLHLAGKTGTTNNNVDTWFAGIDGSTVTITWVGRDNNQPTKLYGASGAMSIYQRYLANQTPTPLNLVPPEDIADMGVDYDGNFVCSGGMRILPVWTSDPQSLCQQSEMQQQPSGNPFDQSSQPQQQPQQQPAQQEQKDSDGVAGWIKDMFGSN

T2: PBP1b (58-804) (E. coli, UniProt P02919 58-804)
T2 sequence: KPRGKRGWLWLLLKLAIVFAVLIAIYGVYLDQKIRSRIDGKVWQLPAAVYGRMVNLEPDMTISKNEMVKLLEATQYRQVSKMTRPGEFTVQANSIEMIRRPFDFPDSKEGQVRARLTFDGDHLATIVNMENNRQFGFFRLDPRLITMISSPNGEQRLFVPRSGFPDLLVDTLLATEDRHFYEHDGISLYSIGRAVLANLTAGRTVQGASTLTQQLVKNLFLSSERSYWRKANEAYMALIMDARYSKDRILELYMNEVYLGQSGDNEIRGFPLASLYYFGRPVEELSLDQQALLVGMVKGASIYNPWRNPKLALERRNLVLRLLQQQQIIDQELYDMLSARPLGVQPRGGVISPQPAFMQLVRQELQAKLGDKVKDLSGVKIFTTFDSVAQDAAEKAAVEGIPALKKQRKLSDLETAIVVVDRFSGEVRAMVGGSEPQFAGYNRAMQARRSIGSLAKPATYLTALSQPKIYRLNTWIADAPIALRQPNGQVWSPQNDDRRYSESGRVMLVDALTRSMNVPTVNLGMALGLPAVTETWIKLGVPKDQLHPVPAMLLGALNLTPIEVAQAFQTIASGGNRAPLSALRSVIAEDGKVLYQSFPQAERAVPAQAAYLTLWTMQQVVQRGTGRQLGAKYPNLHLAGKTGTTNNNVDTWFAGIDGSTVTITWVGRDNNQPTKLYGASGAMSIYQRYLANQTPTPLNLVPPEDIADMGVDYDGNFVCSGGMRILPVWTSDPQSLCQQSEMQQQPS


Legend:
PBP1bγ = target: T1, PBP1bγ; test: fluorescence polarisation
PBP1b (58-804) = target: T2, PBP1b (58-804); test: crystal structure

| Kd (PBP1bγ) | binding result (PBP1b (58-804)) | Binder |
| --- | --- | --- |
| 8.1 ± 1.7 µM |  | {FITC}-KVTGNGLPPKPEERWRYIKELESRQ [FITC labeled peptide (FITC-K69-Q93) of FtsN] |
|  | binds | LPPKPEERWRYIKELESRQ [^EFtsN peptide (L75-Q93), unlabeled] |
